# ± gives the standard deviation of the averaged measurements.
# B1: library; a variant is named by its letters at N, in order (parent)
# chain: GCUGUCACCGAGAAACUGUGAAGUAUAUCUUAAACCUGGGCACUUAAAAGAUAUAUGGAGUUAGUAGUGCAACCUGCUCGGUCUGAUGAGUCCNNNNNNGGACGAAACAGC
# Tests used:
# cyclic di-GMP [1] = variants of: B1; test: FACS-Seq fitted mean relative fluorescence mCherry/BFP without ligand (log10 relative fluorescence); HEK293T; ligand: cyclic di-GMP (c-di-GMP-II aptamer); higher = higher reporter protein expression; conditions: ligand present: no
# Procedure: (§1)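 Hammerhead (sTRSV) ribozyme switch libraries with a ligand aptamer grafted on stem I and a randomized N4-6 loop II, cloned into the 3' UTR of mCherry and transiently transfected into HEK293T cells; RNA-Seq 72 h post transfection with ligand added 1 h before transfection; RNA read count / plasmid DNA read count normalized to the non-cleaving sTRSVctl (x100), log10; sequences with >100 DNA reads. FACS-Seq: lentiviral library sorted into 6 bins after 48 h ligand, log-normal fit mean of mCherry/BFP scaled to controls. Printed sequences are partial switch sequences.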
# cyclic di-GMP [2] = variants of: B1; test: normalized RNA/DNA level without ligand (relative to sTRSVctl = 100) (log10 (% of sTRSVctl)); HEK293T; ligand: cyclic di-GMP (c-di-GMP-II aptamer); higher = less ribozyme self-cleavage, higher mRNA level; conditions: reporter: mCherry (pCS4076), ligand present: no
# Procedure: as §1
# cyclic di-GMP [3] = variants of: B1; test: FACS-Seq fitted mean relative fluorescence mCherry/BFP with ligand (log10 relative fluorescence); HEK293T; ligand: cyclic di-GMP (c-di-GMP-II aptamer); ligand concentration (+) FACS-Seq: 1 mM; higher = higher reporter protein expression; conditions: ligand present: yes
# Procedure: as §1
# cyclic di-GMP [4] = variants of: B1; test: normalized RNA/DNA level with ligand (relative to sTRSVctl = 100) (log10 (% of sTRSVctl)); HEK293T; ligand: cyclic di-GMP (c-di-GMP-II aptamer); ligand concentration (+) RNA-Seq: 1 mM; higher = less ribozyme self-cleavage, higher mRNA level; conditions: reporter: mCherry (pCS4076), ligand present: yes
# Procedure: as §1
Variant,FACS-Seq fitted mean (log10) (cyclic di-GMP [1]),normalized RNA/DNA level without ligand (log10) (cyclic di-GMP [2]),FACS-Seq fitted mean (log10) (cyclic di-GMP [3]),normalized RNA/DNA level with ligand (log10) (cyclic di-GMP [4])
GAAUGA,-0.606 ± 0.037,1.48 ± 0.06,-0.296 ± 0.056,1.65 ± 0.16
ACGGUA,-0.397 ± 0.031,1.37 ± 0.069,-0.0373 ± 0.057,1.57 ± 0.14
GCACUC,-0.286 ± 0.015,1.5 ± 0.056,0.125 ± 0.0091,1.69 ± 0.17
UCGCAA,-0.351 ± 0.038,1.47 ± 0.019,-0.0919 ± 0.063,1.69 ± 0.18
GUGAUG,-0.401 ± 0.17,1.54 ± 0.09,-0.137 ± 0.01,1.73 ± 0.068
GAAGAU,-0.28 ± 0.1,1.5 ± 0.088,0.0337 ± 0.016,1.65 ± 0.14
CCUCAG,-0.325 ± 0.018,1.669 ± 0.003,-0.0311 ± 0.077,1.81 ± 0.14
ACAAUC,-0.873 ± 0.017,1.49 ± 0.043,-0.61 ± 0.16,1.7 ± 0.15
AACACU,0.049 ± 0.17,1.68 ± 0.033,0.373 ± 0.032,1.81 ± 0.096
CCGUAU,-0.719 ± 0.038,1.5 ± 0.015,-0.441 ± 0.007,1.69 ± 0.16
ACUGCU,-0.0841 ± 0.15,1.616 ± 0.01,0.249 ± 0.013,1.8 ± 0.14
ACGCUC,-0.914 ± 0.014,1.67 ± 0.02,-0.852 ± 0.057,1.82 ± 0.16
GUACGC,-0.788 ± 0.17,1.77 ± 0.056,-0.516 ± 0.067,1.88 ± 0.091
CAUUUA,-0.573 ± 0.012,1.32 ± 0.088,-0.291 ± 0.0053,1.51 ± 0.1
CCGCUU,-0.424 ± 0.011,1.557 ± 0.013,-0.124 ± 0.0085,1.79 ± 0.076

# Source: the supplement of paper PMC6757056
